Target: T1, IQ Probe (internally quenched linear polypeptide containing the S01 substrate)
T1 chain: LSGRSDNH

B1: Recombinant human MT-SP1 (membrane type serine protease 1; R&D Systems 3946-SEB) (protein)
chain: VVGGTDADEGEWPWQVSLHALGQGHICGASLISPNWLVSAAHCYIDDRGFRYSDPTQWTAFLGLHDQSQRSAPGVQERRLKRIISHPFFNDFTFDYDIALLELEKPAEYSSMVRPICLPDASHVFPAGKAIWVTGWGHTQYGGTGALILQKGEIRVINQTTCENLLPQQITPRMMCVGFLSGGVDSCQGDSGGPLSSVEADGRIFQAGVVSWGDGCAQRNKPGVYTRLPLFRDWIKENTGV
- kcat/KM of the S01 substrate, IQ Probe relative to C225-S01: 4.6× and 3.5× times, respectively
